Reference: patent US20160158359A1 (JUNO THERAPEUTICS, published 2016)
Ends that are not written are not given here.

Experiments:
[1] = target: T1, HLA-A*03:01 recombinant MHC class I molecule (human); test: REVEAL MHC-peptide complex stabilisation assay, recombinant HLA-A*03:01
T1 construct: Recombinant MHC molecule incubated with synthetic peptide
Protocol: (§1) Specifically, assessment was of a series of overlapping 9-mer peptides derived from the sequence […] (set forth in SEQ ID NO: 7), which contains a portion of the CD28 transmembrane domain and 4-1BB costimulatory domain spanning the junction between the domains (bond joining the two amino acids noted in underline). In addition, a series of overlapping 9-mer peptides of each of a number of different variants of this portion also were assessed, each variant containing a mutation or mutations in this region as described in Example 2.
(§2) The various 9-mer overlapping peptides were synthesized and their purity tested by MALDI-TOF Mass Spectrometry.

[2] = target: T2, recombinant HLA-A*02:01 MHC class I molecule (human); test: REVEAL MHC-peptide binding assay, stabilisation of ternary complex with recombinant MHC
T2 construct: Recombinant MHC molecule incubated with each synthetic peptide; the assay measures how far the peptide stabilises the ternary MHC-peptide complex; also called HLA-A2:01
Protocol: as §1, §2

[3] = target: T3, recombinant HLA-A*03:01 MHC class I molecule (human); test: as above
T3 construct: Recombinant MHC molecule incubated with each synthetic peptide; the assay measures how far the peptide stabilises the ternary MHC-peptide complex
Protocol: as §1, §2

[4] = target: T4, HLA-B*08:01 (recombinant MHC class I molecule) (human); test: REVEAL MHC-peptide complex stabilisation assay, recombinant HLA-B*08:01
T4 construct: Recombinant MHC molecule of the ProImmune REVEAL assay; the test peptide is the third part of the ternary complex
Protocol: as §1, §2

[5] = target: T5, HLA-A*11:01 recombinant MHC class I molecule (human); test: REVEAL MHC-peptide binding assay, stabilisation of ternary MHC-peptide complex, recombinant HLA
T5 construct: Recombinant MHC molecule of a bought assay service
Protocol: as §1, §2

[6] = target: T6, HLA-B*08:01 recombinant MHC class I molecule (human); test: as above
T6 construct: Recombinant MHC molecule of a bought assay service
Protocol: as §1, §2

IFWVQRGSK
In Vitro Score [1]: 0.3 % of positive control peptide

B1: WVKRGRKKA synthetic 9-mer peptide (overlapping reference peptide 7, L35A) (peptide)
peptide: WVKRGRKKA
notes: Variant 9-mer of the CD28 transmembrane / 4-1BB costimulatory junction region of a CAR
In Vitro Score [2]: 4.5 score, % of positive control peptide (=100) | In Vitro Score [3]: 0.9 score, % of positive control peptide (=100)

B2: WVQRGNKKS synthetic 9-mer peptide (overlapping reference peptide 7, K29Q/L35S) (peptide)
peptide: WVQRGNKKS
modifications: not fully specified
notes: Variant 9-mer of the CD28-4-1BB junction region
In Vitro Score [2]: 1.2 score, % of positive control peptide (=100) | In Vitro Score [3]: 0.7 score, % of positive control peptide (=100)

B3: WVQRGNKKA synthetic 9-mer peptide (overlapping reference peptide 7, K29Q/L35A) (peptide)
peptide: WVQRGNKKA
modifications: not fully specified
notes: as for B2
In Vitro Score [2]: 1.9 score, % of positive control peptide (=100) | In Vitro Score [3]: 1.2 score, % of positive control peptide (=100)

B4: AFIIFWVRR synthetic 9-mer peptide (overlapping reference peptide 2, K29R) (peptide)
peptide: AFIIFWVRR
notes: as for B2
In Vitro Score [2]: 1.4 score, % of positive control peptide (=100)

B5: FWVKRGLKK (SEQ ID NO: 63) (peptide)
peptide: FWVKRGLKK
notes: synthetic 9-mer; the entry already carries the change; also called R32L
In Vitro Score [4]: 6.3 % of positive control peptide

WVKRGRKKA (Synthetic 9-mer)
In Vitro Score [5]: 3.1 % of positive control peptide (set at 100%) | In Vitro Score [6]: 3.1 % of positive control peptide (set at 100%)

WVQRGNKKS (not fully specified, Synthetic 9-mer; also called K29Q/L35S)
In Vitro Score [5]: 5 % of positive control peptide (set at 100%) | In Vitro Score [6]: 0 % of positive control peptide (set at 100%)

WVQRGNKKA (not fully specified, Synthetic 9-mer; also called K29Q/L35A)
In Vitro Score [5]: 0.8 % of positive control peptide (set at 100%) | In Vitro Score [6]: 0.7 % of positive control peptide (set at 100%)

AFIIFWVRR (Synthetic 9-mer)
In Vitro Score [5]: 1.5 % of positive control peptide (set at 100%) | In Vitro Score [6]: 0.3 % of positive control peptide (set at 100%)
